Our source for the Kd and kon values is patent publication US20170015742A1 (published 2017).

The chains are these.
B1: hBDB-4G8.1 (antibody, V domains shown)
VH: EVQLVQSGSELKKPGASVKVSCKASGYTFTNYGMYWVRQAPGQGLEWMGWINTETGKPTYADDFKGRFVFSLDTSVSTAYLQISSLKAEDTAVYYCARTNYYYRSYIFYFDYWGQGTMVTVSS
VL: AIQLTQSPSSLSASVGDRVTITCRASESVSTHMHWYQQKPGKAPKLLIYGASNLESGVPSRFSGSGSGTDFTLTISSLQPEDFATYYCQQSWNDPFTFGQGTKLEIK
notes: Humanized IgG made from pHybE vectors in HEK293 cells
B2: hBDB-4G8.7 (antibody, V domains shown)
VH: EVQLVQSGAEVKKPGASVKVSCKASGYTFTNYGMYWVRQAPGQGLEWMGWINTETGKPTYADDFKGRVTMTTDTSTSTAYMELRSLRSDDTAVYYCARTNYYYRSYIFYFDYWGQGTMVTVSS
VL: B1 VL
notes: as for B1
B3: hBDB-4G8.3 (antibody, V domains shown)
VH: B1 VH
VL: DTVLTQSPATLSLSPGERATLSCRASESVSTHMHWYQQKPGQAPRLLIYGASNLESGVPARFSGSGSGTDFTLTISSLEPEDFAVYFCQQSWNDPFTFGQGTKLEIK
notes: as for B1
B4: hBEW-9A8.11 (antibody, V domains shown)
VH: EVQLVQSGAEVKKPGASVKVSCKASGYTFTNYGMYWVRQAPGQGLEWMGWINTETGKPIYADDFKGRVTMTTDTSTSTAYMELRSLRSDDTAVYYCARVDYDGSFWFAYWGQGTLVTVSS
VL: B1 VL with A1D, L4M, H32V, M33I, S91H, F96P
notes: as for B1
B5: hBDB-4G8.10 (antibody, V domains shown)
VH: B2 VH with V2I, W47Y, V68F, M70F, T72L, Y95F
VL: B1 VL
notes: as for B1
B6: hBDB-4G8.2 (antibody, V domains shown)
VH: B1 VH
VL: ATQLTQSPSLSASVGDRVTITCRASESVSTHMHWYQQKPGKQPKLLIYGASNLESGVPSRFSGSGSGTDFTLTISSLQPEDFATYFCQQSWNDPFTFGQGTKLEIK
notes: as for B1
B7: hBDB-4G8.4 (antibody, V domains shown)
VH: B1 VH with V2I, W47Y, Y95F
VL: B1 VL
notes: as for B1
B8: hBEW-9A8.12 (antibody, V domains shown)
VH: B4 VH
VL: B1 VL with A1D, I2T, H32V, M33I, A43Q, Y49H, Y87F, S91H, F96P
notes: as for B1
B9: hBDB-4G8.6 (antibody, V domains shown)
VH: B1 VH with V2I, W47Y, Y95F
VL: B3 VL
notes: as for B1
B10: hBDB-4G8.5 (antibody, V domains shown)
VH: B1 VH with V2I, W47Y, Y95F
VL: B6 VL
notes: as for B1
B11: hBDB-4G8.8 (antibody, V domains shown)
VH: B2 VH
VL: B6 VL
notes: as for B1
B12: hBDB-4G8.11 (antibody, V domains shown)
VH: B2 VH with V2I, W47Y, V68F, M70F, T72L, Y95F
VL: B6 VL
notes: as for B1
B13: hBDB-4G8.12 (antibody, V domains shown)
VH: B2 VH with V2I, W47Y, V68F, M70F, T72L, Y95F
VL: B3 VL
notes: as for B1
B14: hBDB-4G8.9 (antibody, V domains shown)
VH: B2 VH
VL: B3 VL
notes: as for B1
B15: hBEW-5C3.1 (antibody, V domains shown)
VH: EIQLVQSGSELKKPGASVKVSCKASGYTFTNYGVYWVKQAPGQGLEYMGWINTETGKPTYADDFKGRFVFSLDTSVSTAYLQISSLKAEDTAVYYCARARQLDWFVYWGQGTLVTVSS
VL: DTVLTQSPATLSLSPGERATLSCRARESLTTSLSWFQQKPGQQPRLLIYGASKLESGVPARFSGSGSGTDFTLTISSLEPEDFAVYFCQQSWYDPPTFGGGTKVEIK
notes: as for B1
B16: hBEW-5C3.4 (antibody, V domains shown)
VH: B15 VH
VL: DTQLTQSPSSLSASVGDRVTISCRARESLTTSLSWFQQKPGKQPKLLIYGASKLESGVPSRFSGSGSGTDFTLTISSLQPEDFATYFCQQSWYDPPTFGGGTKVEIK
notes: as for B1
B17: hBEW-5C3.5 (antibody, V domains shown)
VH: EIQLVQSGAEVKKPGSSVKVSCKASGYTFTNYGVYWVKQAPGQGLEYMGWINTETGKPTYADDFKGRFTFTLDKSTSTAYMELSSLRSEDTAVYFCARARQLDWFVYWGQGTLVTVSS
VL: B16 VL
notes: as for B1
B18: hBDB-4G8.13 (antibody, V domains shown)
VH: EIQLVQSGTEVKKPGESLKISCKASGYTFTNYGMYWVKQMPGKGLEYMGWINTETGKPTYADDFKGRFTFSLDKSFNTAFLQWSSLKASDTAMYFCARTNYYYRSYIFYFDYWGQGTMVTVSS
VL: B3 VL with D1E, L13V, E79Q, P80S, K103R
notes: as for B1
B19: hBEW-9A8.20 (antibody, V domains shown)
VH: B4 VH with V2I, R38K, W47Y, V68F, M70F, T72L
VL: B3 VL with D1E, H32V, M33I, A43Q, Y49H, S91H, F96P
notes: as for B1
B20: hBDB-4G8.14 (antibody, V domains shown)
VH: EIQLVQSGGGVVQPGGSLRLSCAASGYTFTNYGMYWVKQAPGKGLEYMGWINTETGKPTYADDFKGRFTFSLDTSKSTAYLQLNSLRAEDTAVYFCARTNYYYRSYIFYFDYWGQGTLVTVSS
VL: B3 VL with A9S, L13A, L21I, R45K, A60S, G66R, E79Q, L104V
notes: as for B1
B21: hBDB-4G8.15 (antibody, V domains shown)
VH: B20 VH with I2V, Q6E, V11L, L83M
VL: B1 VL with A1D, I2T, T22S, Y87F, L104V
notes: as for B1
B22: hBEW-9A8.21 (antibody, V domains shown)
VH: B4 VH with V2I, V68F, M70F, T72L
VL: B3 VL with D1E, H32V, M33I, A43Q, Y49H, S91H, F96P
notes: as for B1
B23: hBEW-9A8.17 (antibody, V domains shown)
VH: EIQLVQSGSELKKPGASVKVSCKASGYTFTNYGMYWVKQAPGQGLEYMGWINTETGKPIYADDFKGRFVFSLDTSVSTAYLQISSLKAEDTAVYYCARVDYDGSFWFAYWGQGTLVTVSS
VL: B3 VL with D1E, H32V, M33I, A43Q, Y49H, S91H, F96P
notes: as for B1
B24: hBEW-9A8.9 (antibody, V domains shown)
VH: B4 VH
VL: EIVLTQSPDFQSVTPKEKVTITCRASESVSTVIHWYQQKPDQSPKLLIKGASNLESGVPSRFSGSGSGTDFTLTINSLEAEDAATYYCQQHWNDPPTFGQGTKLEIK
notes: as for B1

Changes are numbered by the printed parent chain.

The target in the assay is T1, human VEGF-A (human, UniProt P15692-4 27-191, limits assumed).
T1 construct: also called huVEGF-A
T1 sequence (P15692 other isoform, or with tags, fused parts or gaps limits assumed): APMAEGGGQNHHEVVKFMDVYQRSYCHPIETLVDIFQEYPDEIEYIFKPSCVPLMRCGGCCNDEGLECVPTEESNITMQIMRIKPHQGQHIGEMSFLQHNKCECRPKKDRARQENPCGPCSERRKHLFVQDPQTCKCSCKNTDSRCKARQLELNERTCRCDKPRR
Kind of assay: SPR (Biacore), antibody captured by anti-human Fc, VEGF-A injected. As for the experimental part: For example, approximately 9000 RU of goat anti-human Fc specific polyclonal antibody (Thermo Fisher Scientific Inc., Rockford, Ill.) diluted in 10 mM sodium acetate (pH 4.5) is directly immobilized across a CM5 research grade biosensor chip using a standard amine coupling kit according to manufacturer's instructions and procedures at 25 μg/ml. Unreacted moieties on the biosensor surface were blocked with ethanolamine. For kinetic analysis, rate equations derived from the 1:1 Langmuir binding model were fitted simultaneously to multiple antigen injections (using global fit analysis) with the use of Scrubber 2 (BioLogic Software), Biacore Biaevaluation 4.0.1 software or Biacore T100 Evaluation software. Purified antibodies or DVD-Ig molecules were diluted in running buffer for capture across goat anti-human Fc reaction surfaces. Antibodies or DVD-Ig molecules to be captured as a ligand (1 μg/ml) were injected over reaction matrices at a flow rate of 10 μl/minute. During the assay, all measurements were referenced against the capture surface alone (i.e., with no captured antibody or DVD-Ig molecule). […] The equilibrium dissociation constant KD (M) of the reaction between antibodies and the target antigen was then calculated from the kinetic rate constants by the following formula: KD=Koff/Kₒₙ. Binding was recorded as a function of time and kinetic rate constants were calculated.
As a reminder, the Kd is the constant that tells how readily two partners part at equilibrium. The term kon denotes a measure of how fast the partners come together. A low value points to slower complex formation. Consider B1, for which binding was characterised by a dissociation constant (Kd) of 5.8 pM and the kon came out at 1.8e+07 M⁻¹ s⁻¹.

As for B2, binding was put at a Kd of 34 pM and the kon is 3.7e+07 M⁻¹ s⁻¹.

B3: binding was characterised by a dissociation constant (Kd) of 4.8 pM and the kon is 1e+07 M⁻¹ s⁻¹.

The molecule B4 showed a Kd of 74 pM and a kon of 1.5e+07 M⁻¹ s⁻¹.

B5 yielded a Kd of 8.1 pM and a kon of 2.7e+07 M⁻¹ s⁻¹.

For the molecule B6, the Kd worked out at 3.6 pM and the kon was determined as 1.7e+07 M⁻¹ s⁻¹.

Consider B7, for which binding was put at a Kd of 5.5 pM and the kon worked out at 2.7e+07 M⁻¹ s⁻¹.

For B8, the affinity, expressed as Kd, was 15 pM and the kon was 9.6e+06 M⁻¹ s⁻¹.

In turn, B9 gave a Kd of 1.4 pM and a kon of 2.6e+07 M⁻¹ s⁻¹.

In turn, B10 yielded a Kd of 1.6 pM and a kon of 2.5e+07 M⁻¹ s⁻¹.

With B11, the Kd was 47 pM and the kon was 1.8e+07 M⁻¹ s⁻¹.

In turn, B12 had a Kd of 1.3 pM and a kon of 2.6e+07 M⁻¹ s⁻¹.

As for B13, the affinity, expressed as Kd, was 1.2 pM and the kon is 2.6e+07 M⁻¹ s⁻¹.

Consider B14, for which the Kd stood at 62 pM and the kon amounted to 1.4e+07 M⁻¹ s⁻¹.

B15: the Kd was 6 pM and the kon was 1.1e+07 M⁻¹ s⁻¹.

Turning to B16, the Kd turned out to be 8.6 pM and the kon amounted to 9.9e+06 M⁻¹ s⁻¹.

As for B17, the affinity, expressed as Kd, was 8.5 pM and the kon is 1.2e+07 M⁻¹ s⁻¹.

In turn, B18 returned a Kd of 7.6 pM and a kon of 2.2e+07 M⁻¹ s⁻¹.

In turn, B19 registered a Kd of 1.6 pM and a kon of 7.6e+06 M⁻¹ s⁻¹.

B20 returned a Kd of 3.7 pM and a kon of 1.5e+07 M⁻¹ s⁻¹.

B21 returned a Kd of 4.4 pM and a kon of 2e+07 M⁻¹ s⁻¹.

B22 gave a Kd of 6.7 pM and a kon of 5.8e+06 M⁻¹ s⁻¹.

On to B23, for which the Kd was 1.7 pM and the kon stood at 7.9e+06 M⁻¹ s⁻¹.

In turn, B24 yielded a Kd of 820 pM and a kon of 1e+07 M⁻¹ s⁻¹.
